The test system of assay [1] is PPIs of the SKEMPI data set (by PDBID). Nature of the assay: SKEMPI experimental ΔΔG, single mutations to alanine. Type of assay: binding. The settings on record: class of the SKEMPI experimental ΔΔG.
Assay [2] has the same test system. The settings on record: single mutation to alanine, sheet sortedByGroup, r_group FAMILYVW; ref SKEMPI; cited from earlier work.

The source of these data is paper PMC6804253, “Predicting and Experimentally Validating Hot-Spot Residues at Protein–Protein Interfaces” (ACS Chemical Biology, 2019).

B1: 1DFJ WI257A (protein, UniProt P10775 1-456, looked up, variant W257A)
Ribonuclease inhibitor: MNLDIHCEQLSDARWTELLPLLQQYEVVRLDDCGLTEEHCKDIGSALRANPSLTELCLRTNELGDAGVHLVLQGLQSPTCKIQKLSLQNCSLTEAGCGVLPSTLRSLPTLRELHLSDNPLGDAGLRLLCEGLLDPQCHLEKLQLEYCRLTAASCEPLASVLRATRALKELTVSNNDIGEAGARVLGQGLADSACQLETLRLENCGLTPANCKDLCGIVASQASLRELDLGSNGLGDAGIAELCPGLLSPASRLKTLALWECDITASGCRDLCRVLQAKETLKELSLAGNKLGDEGARLLCESLLQPGCQLESLWVKSCSLTAACCQHVSLMLTQNKHLLELQLSSNKLGDSGIQELCQALSQPGTTLRVLCLGDCEVTNSGCSSLASLLLANRSLRELDLSNNCVGDPGVLQLLGSLEQPGCALEQLVLYDTYWTEEVEDRLQALEGSKPGLRVIS
In the case of B1, the sk_class entry in assay [1] was “Positive (positive (a hot residue) ΔΔG ≥ 4.184 kJ/mol)”. For the same molecule, the “sk_ddG_kJ (SKEMPI experimental ΔΔG)” value in assay [2] is on record as 5.56 kJ.

B2: 1DAN YU157A (protein, UniProt P13726 33-251, looked up, variant Y157A)
extracellular domain: SGTTNTVAAYNLTWKSTNFKTILEWEPKPVNQVYTVQISTKSGDWKSKCFYTTDTECDLTDEIVKDVKQTYLARVFSYPAGNVESTGSAGEPLYENSPEFTPYLETNLGQPTIQSFEQVGTKVNVTVEDERTLVRRNNTFLSLRDVFGKDLIYTLYAWKSSSSGKKTAKTNTNEFLIDVDKGENYCFSVQAVIPSRTVNRKSTDSPVECMGQEKGEFRE
modifications: extracellular domain
On to B2, for which the sk_class entry in assay [1] was “Neutral (neutral (little effect) 4.184 kJ/mol < ΔΔG > −4.184 kJ/mol)”. Besides, the “sk_ddG_kJ (SKEMPI experimental ΔΔG)” value in assay [2] is listed as 0.00 kJ.

B3: 1DAN VU179A (protein, UniProt P13726 33-251, looked up, variant V179A)
extracellular domain: SGTTNTVAAYNLTWKSTNFKTILEWEPKPVNQVYTVQISTKSGDWKSKCFYTTDTECDLTDEIVKDVKQTYLARVFSYPAGNVESTGSAGEPLYENSPEFTPYLETNLGQPTIQSFEQVGTKVNVTVEDERTLVRRNNTFLSLRDVFGKDLIYTLYYWKSSSSGKKTAKTNTNEFLIDADKGENYCFSVQAVIPSRTVNRKSTDSPVECMGQEKGEFRE
modifications: extracellular domain
In the case of B3, the sk_class entry in assay [1] was “Neutral (neutral (little effect) 4.184 kJ/mol < ΔΔG > −4.184 kJ/mol)”. Moreover, in assay [2], the “sk_ddG_kJ (SKEMPI experimental ΔΔG)” value is given as 0.46 kJ.

B4: 1DAN VU198A (protein, UniProt P13726 33-251, looked up, variant V198A)
extracellular domain: SGTTNTVAAYNLTWKSTNFKTILEWEPKPVNQVYTVQISTKSGDWKSKCFYTTDTECDLTDEIVKDVKQTYLARVFSYPAGNVESTGSAGEPLYENSPEFTPYLETNLGQPTIQSFEQVGTKVNVTVEDERTLVRRNNTFLSLRDVFGKDLIYTLYYWKSSSSGKKTAKTNTNEFLIDVDKGENYCFSVQAVIPSRTANRKSTDSPVECMGQEKGEFRE
modifications: extracellular domain
Regarding B4, the sk_class entry in assay [1] is reported as “Neutral (neutral (little effect) 4.184 kJ/mol < ΔΔG > −4.184 kJ/mol)”. Besides, in assay [2], the “sk_ddG_kJ (SKEMPI experimental ΔΔG)” value is listed as 0.46 kJ.

B5: 1DAN VU207A (protein, UniProt P13726 33-251, looked up, variant V207A)
extracellular domain: SGTTNTVAAYNLTWKSTNFKTILEWEPKPVNQVYTVQISTKSGDWKSKCFYTTDTECDLTDEIVKDVKQTYLARVFSYPAGNVESTGSAGEPLYENSPEFTPYLETNLGQPTIQSFEQVGTKVNVTVEDERTLVRRNNTFLSLRDVFGKDLIYTLYYWKSSSSGKKTAKTNTNEFLIDVDKGENYCFSVQAVIPSRTVNRKSTDSPAECMGQEKGEFRE
modifications: extracellular domain
Consider B5, for which the sk_class result in assay [1] was “Positive (positive (a hot residue) ΔΔG ≥ 4.184 kJ/mol)”. The “sk_ddG_kJ (SKEMPI experimental ΔΔG)” value in assay [2] is given as 6.57 kJ.
